Data on one substance can be found in patent publication US20260167740A1, “MEANS AND METHODS FOR TREATING CASTRATION-RESISTANT PROSTATE CANCER” (Merus N.V., priority 2022, published 2026).

Common to all, as to type: in vivo, human
The nature of series [1]: Phase II clinical study of zenocutuzumab with an AR axis-targeting agent in mCRPC patients: safety. Particulars: cohort of ten mCRPC patients. From the text: (§1) This is a Phase II, open-label, multicenter, international study designed to evaluate the efficacy of zenocutuzumab in patients with metastatic mCRPC with evidence of disease progression in accordance with Prostate Cancer Clinical Trials Working Group 3 (PCWG3) criteria on the last line of prior hormonal therapy that included either the second-generation AR antagonist enzalutamide or the androgen synthesis inhibitor abiraterone acetate. Patients will be enrolled and will receive zenocutuzumab in combination with the AR targeting agent on which they experienced disease progression immediately before study entry. A cohort of patients with […] and tensin homolog (PTEN) wild-type status will be enrolled. A safety run-in will be performed in the first 4 to 6 patients.
(§2) Zenocutuzumab will be administered as a 2-hour IV infusion on Day 1, then Q2W of every 28-day cycle. A flat dose of 750 mg will be administered.
(§3) Patients will receive zenocutuzumab in combination with one of the following next generation AR signaling inhibitors that the patient was receiving immediately prior to entering the study: • Abiraterone acetate (ZYTIGA®) 1000 mg PO QD in combination with prednisone 5 mg PO twice daily (BID). • Enzalutamide (XTANDIR) 160 mg PO QD.
(§4) Eligible patients will be enrolled and will receive sequential treatment cycles, with a treatment cycle being 4 weeks (28 days). All patients will receive zenocutuzumab with a flat dose of 750 mg IV Q2W.
(§5) Following the clinical trial protocol of Example 2, mCRPC patients with histologically confirmed prostate adenocarcinoma were enrolled. Patients who were progressing on either abiraterone acetate or enzalutamide were continued on their backbone AR axis-targeting agents after study enrollment and received treatment with zenocutuzumab in combination. Sites of metastatic involvement included lymph nodes, bone, and/or visceral organs. PTEN status of tumors was established in patients by IHC when sufficient biological material was available, using Roche Ventana Optiview kit DAB and SP218 PTEN antibody using Benchmark Ultra immunohistochemical automated slide stainer. The OptiView DAB IHC Detection Kit (OptiView) is an indirect, biotin-free system for detecting mouse IgG, mouse IgM and rabbit primary antibodies. The kit is intended to identify targets by IHC in sections of formalin-fixed, paraffin-embedded and frozen tissue that are stained on the VENTANA automated slide stainers and visualized by light microscopy. The clinical interpretation of any staining, or the absence of staining, is complemented by morphological studies and evaluation of proper controls.
Among a cohort of ten patients treated, treatment-emergent adverse events (TEAE) related to study treatment classified as a Grade 3 TEAE or higher were not observed.

Series [2] concerns castration-resistant prostate cancer. Kind of series: Phase II clinical study of zenocutuzumab with an AR axis-targeting agent in mCRPC patients: tumor response (RECIST v1.1 / PCWG3).
Text: as §1, §2, §3, §4
Radiological measurement of tumors to assess antitumor effect of zenocutuzumab will be performed by CT scan or MRI. Imaging will be performed according to standard local practice and data will be collected in the electronic case report form. Imaging of all patients will be assessed by the local investigator.
Whole body bone scintigraphy will be performed every 8 weeks for the first 12 months of treatment and every 12 weeks thereafter. Tumor assessments will be completed according to PCWG3-modified RECIST criteria.
as §5

Series [3] in a line: Single-agent treatment of over 100 patients with MF3958×MF3178: tolerability and immunogenicity.
The mark [4] stands for this setting: zenocutuzumab in combination with abiraterone acetate or enzalutamide.
The mark [5] stands for this setting: Example 4: person with mCRPC, combination with enzalutamide, 6 months.
Setting [6] is: Example 5: person with mCRPC, PTEN loss, combination with abiraterone acetate/prednisone, 4 months.

As for “zenocutuzumab: Full length IgG1 bispecific antibody comprising MF3958×MF3178, targeting ERBB2 and ERBB3”, in series [1] (zenocutuzumab 750 mg IV Q2W in combination with abiraterone acetate or enzalutamide), the “treatment-emergent adverse events (TEAE) related to study treatment classified as Grade 3 TEAE or higher” value is given as “not observed”. In addition, in series [1] (setting [4]), the “infusion-related reactions (IRR) reported” value is “a single IRR was reported (i.e. Grade 2, related)”; the safety concerns result is on record as “no safety concerns”; the “tolerability of the combination” value is “very well tolerated”; the “treatment discontinuation due to an adverse event” value is recorded as “no treatment discontinuation”. Also, the “unexpected signals of toxicity” value in series [1] (setting [4]) is on record as “nor were any unexpected signals of toxicity reported”. Besides, the “radiographic progression (lymph node)” value in series [2] (Example 4: combination with enzalutamide, after six months of on-going treatment) is “no evidence of lymph node progression”. Further, in series [2] (setting [5]), the “best overall response by RECIST” value is on record as “stable disease” and the “response by bone scans by PCWG3” value is reported as “no evidence of disease (NED)”. Besides, in series [2] (Example 5: combination with abiraterone acetate/prednisone, after five months of on-going treatment), the “radiographic progression (lymph node or bone)” value was “no evidence of lymph node or bone progression”. In addition, in series [2] (setting [6]), the “best overall response by RECIST” value is “stable disease” and the “response by bone scans by PCWG3” value is on record as “stable disease”. The “best overall response by measurement of target lesions (lymph nodes) under RECIST v1.1 per investigator” value in series [2] (Example 6: person with mCRPC, PTEN wildtype, combination with enzalutamide) is given as “stable disease”. In series [3], the risk for immunogenicity result was “low risk for immunogenicity” and the “tolerability as a single agent” value is reported as “well tolerated”.
